The values that follow come from paper PMC10120574 (Biochemistry, 2022).

One data set deals with Nterm1 (UniProt position 2, ----MPLLKFD). The experiment in a line: NMR. Conditions: not stated (presumably free enzyme); cited from earlier work.
For the next data set, the system named is 437. The experiment in a line: UV ketonization assay, decay of enol at […] nm. Type of data set: biochemical, Calothrix sp. PCC 6303. Conditions: read-out: 437 / Km; 10 mM Na2HPO4, pH 8.3, 22 °C; 5-75 μM substrate.

As to “Malonate semialdehyde decarboxylase (Pp MSAD) (Pseudomonas pavonaceae 170)”, in the data set with Nterm1, the pKa – broadly, the negative logarithm of the acid dissociation constant – is roughly 9.2.
Regarding `O=C(O)C=CC=C(O)C(=O)O` [2-HM, 2-Hydroxymuconate], the Km in the data set with 437 amounted to 34 ± 12 µM.
